Test results from patent US12571058.

Target: histidine kinase UzcS (Caulobacter crescentus NA1000)
Test: cell-based or functional assay

histidine kinase UzcS (Caulobacter crescentus NA1000), sequence (chain, as listed by the source limits assumed, form in doubt): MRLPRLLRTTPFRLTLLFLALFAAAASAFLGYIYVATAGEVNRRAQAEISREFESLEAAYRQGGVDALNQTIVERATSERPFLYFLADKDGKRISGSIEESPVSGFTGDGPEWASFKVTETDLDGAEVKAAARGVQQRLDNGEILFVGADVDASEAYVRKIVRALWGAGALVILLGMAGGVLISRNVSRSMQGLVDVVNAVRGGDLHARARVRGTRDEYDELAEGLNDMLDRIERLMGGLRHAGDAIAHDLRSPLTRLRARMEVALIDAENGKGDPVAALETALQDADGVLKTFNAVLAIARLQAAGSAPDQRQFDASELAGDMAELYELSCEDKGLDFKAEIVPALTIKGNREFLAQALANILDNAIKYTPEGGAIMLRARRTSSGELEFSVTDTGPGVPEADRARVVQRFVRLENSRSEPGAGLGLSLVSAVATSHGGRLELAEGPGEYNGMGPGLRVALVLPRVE

fold decrease in U detection limit of UzcRS (reporter fluorescence with and without UzcY, FIG. 12): > 4 fold
Substance: UzcY
